Experimental data as given in US20240238445A1, “INHIBITORS AND USES THEREOF” (NEURACLE SCIENCE CO., LTD., priority 2021, published 2024).

Assays:
[1] = biological target: binding of FAM19A5 protein to full-length ectodomain of LRRC4 protein (Homo sapiens, UniProt Q7Z5A7); assay: Competitive inhibition assay, plate coated with full-length ectodomain of LRRC4; settings: FAM19A5 5 ng/mL; 100 nM/well coat
Experimental: As described in Example 3, there appeared to be much similarity in the binding domains of the different members of the LRRC4 family. […] Then, recombinant FAM19A5 protein (5 ng/mL) was added in combination with one of the following: (i) LRRC4B (484-576) protein fragment, (ii) LRRC4B (453-576, AA) protein fragment, and (iii) synthetic FB-20 peptide. The plates were incubated at 37° C., and then, the amount of FAM19A5 protein bound to the coated LRRC4, LRRC4B, or LRRC4C proteins was measured using anti-FAM19A5 (1-65) antibody.

[2] = biological target: T1, FAM19A5 isoform 2 - LRRC4B protein complex in HEK293 cells (Homo sapiens, UniProt Q7Z5A7); assay: Immunofluorescence: dissociation of FAM19A5 from full-length LRRC4B in HEK293 cells; assay type: cell-based; settings: HEK293 cells expressing FAM19A5 isoform 2 and LRRC4B, treated 30 minutes
T1 construct: expressed in transfected cells; host or cells: HEK293
Experimental: Since LRRC4B protein fragments containing the binding domain described in Example 2 (e.g., LRRC4B (453-576); i.e., construct #11 in Table 6) was able to bind to FAM19A5 protein with high affinity, it was next assessed whether such protein fragments could compete with naturally existing LRRC4B protein for binding to FAM19A5 protein, and thereby, dissociate the FAM19A5-LRRC4 protein family complex. Briefly, HEK293 cells expressing both FAM19A5 isoform 2 and LRRC4B protein were treated in vitro for 30 minutes with either LRRC4B (453-576)-hFc or mutant LRRC4B (453-576)-hFc (includes alanine substitutions at positions 488 and 489 of SEQ ID NO: 2; SEQ ID NO: 16) protein fragments. Then, cells were immunostained with anti-FAM19A5 (1-65) and anti-LRRC4B antibodies to determine the expression of FAM19A5 and full-length LRRC4B proteins, respectively. The hFc-fused LRRC4B protein fragments were determined using an anti-hIgG antibody. The nuclei were stained with Hoechst 33342.

[3] = test system: APP/PS1 mice (Alzheimer mouse model); assay: Synaptic formation in hippocampal CA1 and CA3 of APP/PS1 mice; assay type: in vivo; settings: 30 mg/kg intravenous, four consecutive weeks, compared to mutant LRRC4B protein fragment
Experimental: FIGS. 16A, 16B, and 16C show the ability of LRRC4B peptide fragment (amino acid residues 453-576 of SEQ ID NO: 2; “WT”) (i.e., SEQ ID NO: 7) to promote synaptic formation in the hippocampal CA1 of APP/PS1 mice. As further described in Example 8, APP/PS1 mice were treated with the LRRC4B peptide fragment (30 mg/kg; intravenous administration) for four consecutive weeks, and then synaptic formation was assessed by fluorescence microscopy using antibodies against SYP and PSD95. Control animals received no treatment (“Cont”) or the mutant LRRC4B peptide fragment […] (i.e., comprising alanine substitutions at positions 488 and 489 of SEQ ID NO: 2; SEQ ID NO: 16). FIG. 16A provides representative fluorescent photomicrographs. FIGS. 16B and 16C show the SYP and PSD95 intensity, respectively.
FIGS. 17A, 17B, and 17C show the ability of LRRC4B peptide fragment (amino acid residues 453-576 of SEQ ID NO: 2; “WT”; SEQ ID NO: 7) to promote synaptic formation in the hippocampal CA3 of APP/PS1 mice. The animals were treated and analyzed as described in FIGS. 16A-16C. FIG. 17A provides representative fluorescent photomicrographs. FIGS. 17B and 17C show the SYP and PSD95 intensity, respectively.
Additionally, to confirm the above effect on neurite outgrowth in vivo, APP/PS1 mice (Alzheimer mouse model) were used. […] Hong et al., Science 352(6286): 712-716 (May 2016). […]

T1 sequence (Q7Z5A7 1-125 isoform Q7Z5A7-2, one chain of several): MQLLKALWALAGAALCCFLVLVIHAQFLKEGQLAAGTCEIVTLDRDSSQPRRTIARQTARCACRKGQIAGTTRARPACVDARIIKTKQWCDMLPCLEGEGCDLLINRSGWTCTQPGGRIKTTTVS
binding of FAM19A5 protein to full-length ectodomain of LRRC4 protein, sequence (Q7Z5A7 44-132): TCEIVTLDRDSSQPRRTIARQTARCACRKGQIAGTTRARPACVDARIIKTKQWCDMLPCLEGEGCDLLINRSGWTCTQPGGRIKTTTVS

Row | Molecule | inhibition of FAM19A5 binding to coated LRRC4 protein (in words) [1] | dissociation of FAM19A5 from full-length LRRC4B protein [2] | SYP and PSD95 immunoreactivities in CA1 and CA3 [3]
1 | GYTYFTTVTVETLETQPGEE [FB-20] | able to inhibit FAM19A5 protein from binding |  | 
2 | LRRC4B (453-576): LRRC4B ectodomain fragment, amino acids 453-576 of SEQ ID NO: 2; FLAG-tagged or hFc-fused (protein, FLAG tag or human Fc, FLAG-tagged or hFc-fused) VSAVDPVAAGGTGSGGGGPGGSGGVGGGSGGYTYFTTVTVETLETQPGEEALQPRGTEKEPPGPTTDGVWGGGRPGDAAGPASSSTTAPAPRSSRPTEKAFTVPITDVTENALKDLDDVMKTTK |  | largely dissociated from the full-length LRRC4B protein | increased SYP and PSD95 immunoreactivities in CA1 and CA3
